Columns and labels:
[1] = biological target: C-terminal domains of the flavodiiron protein CD1623 from Clostridium difficile 630 (FDP_F_Cter), residues 401-843 (Clostridium difficile 630); test: SEC; each protein loaded separately at room temperature on a 25 mL Superdex S-200 10/300 GL column; 20 mM Tris-HCl pH 7.5, 18% glycerol, 150 mM NaCl; calibrated with mass standards; data not shown
[2] = biological target: Class F flavodiiron protein CD1623 from Clostridium difficile 630 (FDP_F) (Clostridium difficile 630); test: as above

Substance: C-terminal domains of the flavodiiron protein CD1623 from Clostridium difficile 630 (FDP_F_Cter), residues 401-843 (domain or fragment)
- stoichiometry N [1]: 2

Substance: Class F flavodiiron protein CD1623 from Clostridium difficile 630 (FDP_F) (enzyme)
- stoichiometry N [2]: 2

— article PMC6033852
